Data published in publication PMC4219717.

Tests used:
GST-AHSP^WT (human) = GST-AHSP^WT (human) (UniProt Q9NZD4)
UniProt Q9NZD4, sequence (Q9NZD4 whole entry): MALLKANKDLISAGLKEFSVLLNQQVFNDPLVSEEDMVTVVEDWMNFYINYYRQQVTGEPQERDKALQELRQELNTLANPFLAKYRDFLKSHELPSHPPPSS

GST-α-Hb1-117 (domain or fragment)
CO recombination kinetics after flash photolysis of the GST-AHSP^WT/GST-α-Hb complex: fraction of the intermediate (I) phase (GST-AHSP^WT (human)): 20 % I phase

GST-α-Hb1-126 (domain or fragment)
CO recombination kinetics after flash photolysis of the GST-AHSP^WT/GST-α-Hb complex: fraction of the intermediate (I) phase (GST-AHSP^WT (human)): 19 % I phase

GST-α-Hb1-134 (domain or fragment)
CO recombination kinetics after flash photolysis of the GST-AHSP^WT/GST-α-Hb complex: fraction of the intermediate (I) phase (GST-AHSP^WT (human)): 10 % I phase

GST-α-Hb1-138 (domain or fragment)
CO recombination kinetics after flash photolysis of the GST-AHSP^WT/GST-α-Hb complex: fraction of the rapid (R) phase (GST-AHSP^WT (human)): 97 % R phase

GST-α-Hb^WT (natural protein)
CO recombination kinetics after flash photolysis of the GST-AHSP^WT/GST-α-Hb complex: fraction of the intermediate (I) phase (GST-AHSP^WT (human)): 100 % I phase

native α-Hb (natural protein)
CO recombination kinetics after flash photolysis of the complex: fraction of the intermediate (I) phase (GST-AHSP^WT (human)): 100 % I phase

native β-Hb (natural protein)
CO recombination kinetics after addition of β-Hb and 1 mM IHP to the GST-AHSP^WT/GST-α-Hb complex: fraction of the rapid (R) phase (GST-α-Hb1-126 (human)): 80 % R phase | CO recombination kinetics after addition of β-Hb and 1 mM IHP to the GST-AHSP^WT/GST-α-Hb complex: fraction of the rapid (R) phase (GST-α-Hb1-134 (human)): 84 % R phase | CO recombination kinetics after addition of β-Hb and 1 mM IHP to the GST-AHSP^WT/GST-α-Hb complex: fraction of the rapid (R) phase (GST-α-Hb1-117 (human)): 88 % R phase | CO recombination kinetics after addition of β-Hb and 1 mM IHP to the GST-AHSP^WT/GST-α-Hb complex: fraction of the rapid (R) phase (GST-α-Hb1-138 (human)): 95 % R phase | CO recombination kinetics after addition of β-Hb and 1 mM IHP to the GST-AHSP^WT/GST-α-Hb^WT complex: fraction of the slow (T) phase (GST-α-Hb^WT (human)): 32 % T phase
